Substrate in this data set: C=CC1=C(C)C2=Cc3c(C=C)c(C)c4[n]3[Fe]([Cl])[n]3c(c(C)c(CCC(=O)O)c3=CC3=NC(=C4)C(C)=C3CCC(=O)O)=CC1=N2
Put plainly: purified protein. The conditions noted are these: haemin 1-20 μM, NADPH added to start, 0.1 M HEPES-NaOH pH 7.2.

Among the data in article PMC3170560 are Km values, retold here.

B1: mBnHO1 (mature BnHO1, haem oxygenase-1) (Brassica napus) (protein)
chain: ATAAEKQKKKRYPGESKGFVEEMRFVAMRLHTKEQAKEGEKETKAPEERPVAKWEPTVEGYLRFLVDSKLVYDTLEEIIGQSTFPTYAEFKNTGLERAEKLDTDLKWFKEQGYEIPEPTATGKKYSQYLKDLADKDPPSFICHFYNIYFAHSAGGRMIGRKVAERILDNRELEFYKWDGDLSELLQNVREKLNKVAEEWTREEKNHCLVGDRESFKYSGEILRLILS
Consider B1, for which the Km was 2.52 µM.
